Test results published in patent US20190352423A1 (Genmab, published 2019).
Where a chain is given by its changes, count along the chain named. Names may count otherwise.

T1: recombinant human CD63 second extracellular domain (Ala 103-Val 203) fused with a polyhistidine tag at the … (human, UniProt P08962 103-203)
T1 construct: range 103-203; Bought from Creative BioMart; also called human His-tagged CD63; soluble CD63
T1 sequence (looked up): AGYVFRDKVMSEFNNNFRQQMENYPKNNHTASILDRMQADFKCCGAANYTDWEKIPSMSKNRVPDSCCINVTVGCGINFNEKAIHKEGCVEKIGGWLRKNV

B1: wild type IgG1-CD63 (antibody, V domains shown)
VH: EVQLQQSGPELVKPGASVKMSCKASGYTFTSYVMHWVRQTPGQGLEWIGYITPYNDGTKYNEKFKGKATLTSDKSSSTAYMELSSLTSEDSAVYYCVGGDNYYYAMDYWGQGTSVTVSA
VL: NIMVTQSPSSLAVSAGEKVTMSCKSSQSVLYSSNQKNYLAWYQQKPGQSPKLLIYWASTRVSGVPDRFTGSGSGTDFTLTISRVQAEDLAVYYCHQYFSSFTFGSGTKLEIKR
notes: Mouse 2192 variable domains on human IgG1 constant domains (heavy chain with K409R or F405L) and a human light chain constant domain; also called wt IgG1-CD63; WT
B2: IgG1-CD63 affinity variant Y46 (antibody, V domains shown)
VH: B1 VH with Y27H
VL: B1 VL
notes: As m1 with one histidine substitution
B3: IgG1-CD63 affinity variant LY51H (antibody, V domains shown)
VH: B1 VH
VL: B1 VL with Y31H
notes: As m1 with one histidine substitution in the light chain
B4: IgG1-CD63 affinity variant LS52 (antibody, V domains shown)
VH: B1 VH
VL: B1 VL with S32H
notes: as for B3
B5: IgG1-CD63 affinity variant Y127 (antibody, V domains shown)
VH: B1 VH with Y108H
VL: B1 VL
notes: as for B2
B6: IgG1-CD63N74H (antibody, V domains shown)
VH: B1 VH with N55H
VL: B1 VL
notes: also called anti-CD63-N74H
B7: IgG1-CD63 affinity variant Y121H (antibody, V domains shown)
VH: B1 VH with Y102H
VL: B1 VL
notes: as for B2
B8: IgG1-CD63 affinity variant Y79H (antibody, V domains shown)
VH: B1 VH with Y60H
VL: B1 VL
notes: as for B2
B9: IgG1-CD63 affinity variant LQ47 (antibody, V domains shown)
VH: B1 VH
VL: B1 VL with Q27H
notes: as for B3
B10: IgG1-CD63 affinity variant T71H (antibody, V domains shown)
VH: B1 VH with T52H
VL: B1 VL
B11: IgG1-CD63 affinity variant G76H (antibody, V domains shown)
VH: B1 VH with G57H
VL: B1 VL
notes: as for B2
B12: anti-CD63-LN54H (antibody, V domains shown)
VH: B1 VH
VL: B1 VL with N34H
B13: IgG1-CD63 affinity variant P72H (antibody, V domains shown)
VH: B1 VH with P53H
VL: B1 VL
B14: IgG1-CD63 affinity variant LV49H (antibody, V domains shown)
VH: B1 VH
VL: B1 VL with V29H
notes: as for B3

The binders below were run against T1, recombinant human CD63 second … (assay: BLI (Octet HTX), IgG on anti-human Fc sensors, His-tagged CD63 as analyte, 30 C).
Protocol: Association and dissociation kinetics of human His-tagged CD63 (100 nM, 50 nM, 25 nM and 12.5 nM, concentrations were calculated using the predicted molecular weight of 13 kDa) were determined in Sample Diluent (ForteBio), using an association time of 1000 s, a dissociation time of 2000 s and a shaker speed of 1000 rpm at 30° C. Data traces were corrected using a reference sensor exposed to Sample Diluent only during the association and dissociation steps, the Y-axis was aligned to baseline and Inter-step correction as well as Savitzky-Golay filtering were applied. The association rate constant Kₒₙ (1/Ms), dissociation rate constant Kdis (1/s) and equilibrium dissociation constant KD (M) were determined with ForteBio Data Analysis Software v8.1, using the 1:1 model and a global full fit.
Work on B1 yielded a Kd of 0.54 nM, a koff of 0.00011 s⁻¹ and a kon of 200000 M⁻¹ s⁻¹. Work on B2 yielded a Kd of 0.78 nM, a koff of 0.00016 s⁻¹ and a kon of 200000 M⁻¹ s⁻¹. B3 was tested, and the Kd was 20 nM, the koff was 0.0019 s⁻¹ and the kon was 98000 M⁻¹ s⁻¹. Work on B4 yielded a Kd of 0.36 nM, a koff of 6.3e-05 s⁻¹ and a kon of 170000 M⁻¹ s⁻¹. B5 gave a Kd of 0.54 nM, a koff of 0.00011 s⁻¹ and a kon of 200000 M⁻¹ s⁻¹. Work on B6 yielded a Kd of 4.1 nM, a koff of 0.00069 s⁻¹ and a kon of 170000 M⁻¹ s⁻¹. Binder B7 has a Kd of 20 nM, a koff of 0.0014 s⁻¹ and a kon of 70000 M⁻¹ s⁻¹. Binder B8 has a Kd of 0.67 nM, a koff of 0.00014 s⁻¹ and a kon of 210000 M⁻¹ s⁻¹. B9 was tested, and the Kd was 0.37 nM, the koff was 6.7e-05 s⁻¹ and the kon was 180000 M⁻¹ s⁻¹. B10 was tested, and the Kd was 7.3 nM, the koff was 0.0011 s⁻¹ and the kon was 150000 M⁻¹ s⁻¹. B11 gave a Kd of 17 nM, a koff of 0.00038 s⁻¹ and a kon of 22000 M⁻¹ s⁻¹. B12 showed a Kd of 2 nM, a koff of 0.00039 s⁻¹ and a kon of 190000 M⁻¹ s⁻¹. B13 gave a Kd of 3.3 nM, a koff of 0.00057 s⁻¹ and a kon of 170000 M⁻¹ s⁻¹. Binder B14 has a Kd of 27 nM.

Each binder was assayed against T1, recombinant human CD63 second … (assay: ELISA: antibody (1 µg/mL) captured on goat anti-human IgG, recombinant human His-tagged CD63 serially diluted (x axis, µg/mL CD63), detected with anti-poly-histidine-biotin, OD 405 nm).
Description: To improve efficacy of ADCs, a bispecific ADC was generated that specifically binds to a target protein (T) with one Fab-arm, while its second Fab-arm binds an effector protein (E), that facilitates internalization and lysosomal delivery of the cytotoxic payload. The resulting bsADC should induce cytotoxicity in cells that express both T and E. Some cytotoxicity may also be induced in cells that express T but not E, whereas the bsADC should not induce cytotoxicity in cells that express E but not TCD63 is used as effector protein (E). To ensure tumor specificity of the bsAb, the anti-CD63 arm (E) of the bsAb should preferably not bind and internalize in the absence of the tumor-specific arm (T) or only do this to a very limited degree. […] In short, ELISA plates (Greiner) were coated overnight at 4° C. with 0.8 μg/mL goat anti-human IgG (Jackson). […] Serially diluted (1-0.0005 μg/mL) recombinant human CD63 (Creative Biomart) was added followed by 1 μg/mL mouse anti-poly-histidine-biotin (R&D). The reaction was visualized using ABTS and stopped with oxalic acid. […] at 405 nm was measured and depicted using Graph Pad Prism 6 software.
For B1, the “EC50 (read off the curve)” value was roughly 0.01 µg/mL. For B6, the “EC50 (read off the curve)” value was roughly 0.06 µg/mL.
